Assay [1] deals with T1, CD228 on A375 and A2058 cells (human, UniProt P08582 20-709).
T1 construct: whole, on cells; GPI-anchored cell surface protein; also called CD228 on A375 cells; CD228 on A2058 cells
T1 sequence (looked up): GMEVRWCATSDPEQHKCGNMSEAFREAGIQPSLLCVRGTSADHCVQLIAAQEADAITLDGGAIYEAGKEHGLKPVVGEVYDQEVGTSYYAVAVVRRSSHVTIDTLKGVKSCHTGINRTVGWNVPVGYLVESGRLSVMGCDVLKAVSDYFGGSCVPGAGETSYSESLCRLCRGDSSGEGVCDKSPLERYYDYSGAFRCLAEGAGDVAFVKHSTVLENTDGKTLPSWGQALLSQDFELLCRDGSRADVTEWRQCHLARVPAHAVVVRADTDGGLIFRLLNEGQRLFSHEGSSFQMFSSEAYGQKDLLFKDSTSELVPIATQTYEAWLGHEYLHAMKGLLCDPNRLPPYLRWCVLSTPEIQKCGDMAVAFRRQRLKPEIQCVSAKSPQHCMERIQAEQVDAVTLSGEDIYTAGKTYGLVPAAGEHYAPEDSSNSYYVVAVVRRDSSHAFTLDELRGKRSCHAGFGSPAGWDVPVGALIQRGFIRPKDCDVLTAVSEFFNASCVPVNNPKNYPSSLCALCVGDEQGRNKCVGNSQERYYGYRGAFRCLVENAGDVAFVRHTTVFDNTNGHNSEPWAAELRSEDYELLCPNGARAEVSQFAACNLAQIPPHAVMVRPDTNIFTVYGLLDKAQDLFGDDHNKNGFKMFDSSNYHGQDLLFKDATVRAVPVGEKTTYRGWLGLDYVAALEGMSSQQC
Put plainly: flow cytometry saturation binding on A375 cells (~18K receptors), neutral pH. The procedure:
(§1) The ability of various anti-CD228 antibodies to bind to CD228 on A375 cells, A2058 cells, and CD228 protein was evaluated at neutral pH using a saturation binding assay. Briefly, 1×10⁵ A2058 or A375 cells that have either 40,000 or 18,000 copies of CD228 respectively, were aliquoted per well of a 96-well v-bottom plates. Each CD228 antibody was added in concentrations ranging from 0.66 pM to 690 nM and incubated on ice for 60 minutes. Cells were pelleted and washed 3× with PBS/BSA followed by addition of 10 μg/ml of a PE labeled anti-human IgG goat secondary antibody and incubated on ice for an additional 60 minutes. Cells were pelleted and washed 3× with PBS/BSA and resuspended in 125 μL of PBS/BSA. Fluorescence was analyzed by flow cytometry, using percent of saturated fluorescent signal to determine percent bound and to subsequently calculate apparent KID. […] The histidine 34 variants show large differences for substitutions with alanine, glutamine, and tyrosine.
(In general: A flow cytometer gives signals particle by particle.)

For assay [2], the target named is T2, human CD228 (R&D Systems Custom02; Lot DCWR021505A) (human, UniProt P08582 20-709, limits assumed).
T2 construct: Bought custom protein coated on ELISA plates; also called CD228 protein; melanotransferrin
T2 sequence (looked up): T1 sequence (looked up)
The assay is described as follows: ELISA, coated human CD228, pH 6.30. The procedure:
(§2) Briefly, 100 ng of human CD228 (R&D Systems Custom02; Lot DCWR021505A) or BSA (Sigma; Catalog No. A7030-100G) were diluted in PBS and added to each well overnight at 4° C. Plates were then washed three times with PBS-T (EMD Millipore; Catalog No. 5246531EA). After washing, plates were blocked with 3% (w/v) BSA in PBS-T for 1 hour at room temperature. Excess blocking buffer was then removed and the primary antibody was added in 3-fold dilutions in diluent buffer (0.15M citrate-phosphate buffer pH 4.0-7.5) starting at an antibody concentration of 60 nM. After incubating for 1 hour at room temperature, the plates were washed 3 times and then incubated with secondary antibody (Goat anti-human IgG Fc-specific HRP-conjugated, Jackson ImmunoResearch code #109-035-098) in PBS-T with 1% BSA. After incubating for 30 minutes at room temperature, plates were washed 3 times. 100 μl TMB substrate (Life Technologies-, Cat #002023) was then added to each well. After incubating 10 minutes at room temperature, 100 μl H₂SO₄ was added to each well to stop the reaction, plates were covered with clear plate seal and read on an Envision at […]. pH-dependent binding for hL49 and nine variants with histidine substituted to alanine, glutamine, or tyrosine in the light chain CDRs are shown in FIG. 1A-1I. […] The triple mutants have lower affinity overall compared to hL49.
A general note: An ELISA detects its analyte on a solid surface through an enzyme-linked reagent.

Assay [3] has as its target T1, CD228 on A375 and A2058 cells. Put plainly: flow cytometry saturation binding on A2058 cells (~40K receptors), neutral pH. The procedure: as §1
For assay [4], the target named is T2, human CD228 (R&D Systems Custom02; Lot …). The assay is described as follows: ELISA on CD228 protein, neutral pH (rounded form of Table 2, pH 7.40).
The target is the same in assay [5]. The assay is described as follows: ELISA, coated human CD228, pH 7.40. The procedure:
as §2

The target is the same in assay [6]. The assay is described as follows: BLI (Octet Red 384), antibody as ligand, antigen as analyte. On the procedure: The binding kinetics of hL49, hL49_34Ala, and hL49_Tyr were determined using BioLayer Interferometry (BLI) technology in an Octet Red 384 instrument using the antibodies as the ligands and the antigen as the analyte. […] In contrast, hL49_34Tyr has a slower on-rate but a similar off-rate compared to wild-type hL49, which may explain its reduced affinity on cells.
On the technique in general: Biolayer interferometry detects binding as a change in optical thickness at a sensor tip.

The target is the same in assay [7]. Put plainly: ELISA, coated human CD228, pH 5.60. The procedure:
as §2

Assay [8] shares this target. Put plainly: ELISA, coated human CD228, pH 4.55. The procedure: as §2

Where a chain is given by its changes, count along the chain named.

B1: hL49 (antibody, V domains shown)
VH: QVQLQESGPGLVKPSETLSLTCTVSGDSITSGYWNWIRQPPGKGLEYIGYISDSGITYYNPSLKSRVTISRDTSKNQYSLKLSSVTAADTAVYYCARRTLATYYAMDYWGQGTLVTVSS
VL: DFVMTQSPLSLPVTLGQPASISCRASQSLVHSDGNTYLHWYQQRPGQSPRLLIYRVSNRFSGVPDRFSGSGSGTDFTLKISRVEAEDVGVYYCSQSTHVPPTFGQGTKLEIK
notes: Humanized antibody; Only variable domains are tied to it; also called hL49 HALC; hL49 WT
Consider B1, for which the half-maximal effective concentration (EC50) (commonly the midpoint of the concentration-response curve) was determined as 1.1 nM in assay [1]; 136 nM in assay [2]; 0.6 nM in assay [3]; 1.8 nM in assay [4]; 1.76 nM in assay [5]. Binding in assay [6] was put at a Kd of 13.1 nM. Further, the “kobs” value in assay [6] was found to be 0.0853 s⁻¹. Moreover, the dissociation rate constant (koff) (usually a measure of how fast the partners let go of each other) in assay [6] worked out at 0.0011 s⁻¹. In addition, the on-rate constant (kon) (as a rule, a measure of how fast the partners come together) in assay [6] was 84200 M⁻¹ s⁻¹.

B2: hL49_3X_Tyr (antibody, V domains shown)
VH: B1 VH
VL: B1 VL with H31Y, H39Y, H98Y
notes: hL49 triple mutant: all three light chain CDR histidines changed to tyrosine
As to B2, the EC50 was 2.1 nM in assay [1]; 74.6 nM in assay [2]; 1.3 nM in assay [3]; 5.4 nM in assay [4]; 5.43 nM in assay [5].

B3: hL49_34_Ala (antibody, V domains shown)
VH: B1 VH
VL: B1 VL with H39A
notes: hL49 variant with the light chain CDR-L1 histidine 34 changed to alanine; also called hL49_H34A
B3: the 50% effective concentration (EC50) in assay [1] is 1.6 nM; in assay [7], 271 nM; in assay [2], 16.5 nM; in assay [3], 1.3 nM; in assay [4] it was 1.2 nM; in assay [5] it was 1.2 nM. Further, the Kd (usually the constant that tells how readily two partners part at equilibrium) in assay [6] came out at 15.8 nM. Besides, in assay [6], the “kobs” value worked out at 0.282 s⁻¹. This molecule displayed a dissociation rate constant (koff) in assay [6] of 0.00438 s⁻¹. The same molecule displayed a kon in assay [6] of 277000 M⁻¹ s⁻¹.

B4: hL49_3X_Ala (antibody, V domains shown)
VH: B1 VH
VL: B1 VL with H31A, H39A, H98A
notes: hL49 triple mutant: all three light chain CDR histidines (two in CDR-L1, one in CDR-L3) changed to alanine
On to B4, for which the EC50 in assay [8] turned out to be 108 nM; in assay [1] it was 1.4 nM; in assay [7], 405 nM; in assay [2], 73.8 nM; in assay [3], 0.9 nM; in assay [4], 4.5 nM. Moreover, the EC50 in assay [5] worked out at 4.46 nM.

B5: hL49_27D_Gln (antibody, V domains shown)
VH: B1 VH
VL: B1 VL with H31Q
notes: hL49 variant with the light chain CDR-L1 histidine 27D changed to glutamine
On to B5, for which the 50% effective concentration (EC50) worked out at 365 nM in assay [8]; 0.9 nM in assay [1]; 17.3 nM in assay [7]; 1.48 nM in assay [2]; 0.5 nM in assay [3]; 0.7 nM in assay [4]. In assay [5], this molecule displayed a 50% effective concentration (EC50) of 0.68 nM.

B6: hL49_27D_Tyr (antibody, V domains shown)
VH: B1 VH
VL: B1 VL with H31Y
notes: hL49 variant with the light chain CDR-L1 histidine 27D changed to tyrosine
Regarding B6, the EC50 in assay [8] was determined as 335 nM; in assay [1], 1.1 nM; in assay [7] it was 5.16 nM; in assay [2], 0.96 nM; in assay [3] it was 0.7 nM; in assay [4] it was 0.7 nM. In addition, a half-maximal effect in assay [5] (EC50) was put at 0.72 nM.

B7: hL49_34_Tyr (antibody, V domains shown)
VH: B1 VH
VL: B1 VL with H39Y
notes: hL49 variant with the light chain CDR-L1 histidine 34 changed to tyrosine; also called hL49_H34Y; hL49_Tyr
Consider B7, for which the concentration giving a half-maximal response (EC50) in assay [1] stood at 79 nM. In assay [3], the EC50 stood at 11.2 nM. Also, in assay [6], the Kd is 132 nM, the “kobs” value is 0.0113 s⁻¹, the koff came to 0.00132 s⁻¹ and the on-rate (kon) came out at 10000 M⁻¹ s⁻¹.

B8: hL49_34_Gln (antibody, V domains shown)
VH: B1 VH
VL: B1 VL with H39Q
notes: hL49 variant with the light chain CDR-L1 histidine 34 changed to glutamine
With B8, the half-maximal effective concentration (EC50) in assay [1] worked out at 5.5 nM; in assay [7], 169 nM; in assay [2], 23.4 nM; in assay [3] it was 2.1 nM; in assay [4], 1.7 nM; in assay [5] it was 1.65 nM.

B9: hL49_3X_Gln (antibody, V domains shown)
VH: B1 VH
VL: B1 VL with H31Q, H39Q, H98Q
notes: hL49 triple mutant: all three light chain CDR histidines changed to glutamine; also called 3X-Gin
For B9, the EC50 in assay [1] is 2.1 nM; in assay [2], 52.6 nM; in assay [3], 1.3 nM; in assay [4], 14.6 nM; in assay [5], 14.6 nM.

B10: hL49_27D_Ala (antibody, V domains shown)
VH: B1 VH
VL: B1 VL with H31A
notes: hL49 variant with the light chain CDR-L1 histidine 27D changed to alanine
For the molecule B10, the concentration giving a half-maximal response (EC50) in assay [8] was 460 nM; in assay [1] it was 1.1 nM; in assay [7], 9.14 nM; in assay [2], 0.99 nM; in assay [3], 0.6 nM; in assay [4], 0.6 nM. This molecule came in with a concentration giving a half-maximal response (EC50) in assay [5] of 0.55 nM.

These data come from patent US20230295330A1 (Seagen, published 2023).
